# In paper PMC4045858, “Biochemical Characterization of Human Gluconokinase and the Proposed Metabolic Impact of Gluconic Acid as Determined by Constraint Based Metabolic Network Analysis” (PLoS ONE, 2014):
# B1: human GntK (gluconokinase isoform I, C9orf103) (Homo sapiens) (protein)
# chain: MAAPGALLVMGVSGSGKSTVGALLASELGWKFYDADDYHPEENRRKMGKGIPLNDQDRIPWLCNLHDILLRDVASGQRVVLACSALKKTYRDILTQGKDGVALKCEESGKEAKQAEMQLLVVHLSGSFEVISGRLLKREGHFMPPELLQSQFETLEPPAAPENFIQISVDKNVSEIIATIMETLKMK
# notes: dimer, also tetramer
# How the values were obtained:
# purified protein [1] = substrate: Nc1ncnc2c1ncn2[C@@H]1O[C@H](COP(=O)(O)OP(=O)(O)OP(=O)(O)O)[C@@H](O)[C@H]1O; assay: purified protein; format: biochemical, Homo sapiens; settings: gluconate as fixed co-substrate, 0.65 mM NADP+, 100 mM phosphate, 40 mM NaCl, 2.5 mM MgCl2, pH 7.2, 0.25 µM enzyme
# purified protein [2] = substrate: O=C(O)[C@H](O)[C@@H](O)[C@H](O)[C@H](O)CO; assay: purified protein; format: biochemical, Homo sapiens; settings: 1 mM ATP, 0.65 mM NADP+, 100 mM phosphate, 40 mM NaCl, 2.5 mM MgCl2, pH 7.2, 0.25 µM enzyme
protein,measurement,setting,value
B1,Km,purified protein [1],343.8 ± 13.9 µM
same,Vmax,purified protein [1],144 µM/min
same,kcat,purified protein [1],9.5 ± 0.5 s⁻¹
same,kcat/Km,purified protein [1],28000 ± 2000 M⁻¹ s⁻¹
same,Km,purified protein [2],106.4 ± 18.5 µM
same,Vmax,purified protein [2],138 µM/min
same,kcat,purified protein [2],9.3 ± 0.5 s⁻¹
same,kcat/Km,purified protein [2],89000 ± 13000 M⁻¹ s⁻¹
